This experiment concerns the target human NPR1 full-length protein overexpressed on CHO-K1 cells (human) (UniProt P16066). Nature of the experiment: cell-based or functional assay.

Chain of human NPR1 full-length protein overexpressed on CHO-K1 cells (human) (P16066 33-1061): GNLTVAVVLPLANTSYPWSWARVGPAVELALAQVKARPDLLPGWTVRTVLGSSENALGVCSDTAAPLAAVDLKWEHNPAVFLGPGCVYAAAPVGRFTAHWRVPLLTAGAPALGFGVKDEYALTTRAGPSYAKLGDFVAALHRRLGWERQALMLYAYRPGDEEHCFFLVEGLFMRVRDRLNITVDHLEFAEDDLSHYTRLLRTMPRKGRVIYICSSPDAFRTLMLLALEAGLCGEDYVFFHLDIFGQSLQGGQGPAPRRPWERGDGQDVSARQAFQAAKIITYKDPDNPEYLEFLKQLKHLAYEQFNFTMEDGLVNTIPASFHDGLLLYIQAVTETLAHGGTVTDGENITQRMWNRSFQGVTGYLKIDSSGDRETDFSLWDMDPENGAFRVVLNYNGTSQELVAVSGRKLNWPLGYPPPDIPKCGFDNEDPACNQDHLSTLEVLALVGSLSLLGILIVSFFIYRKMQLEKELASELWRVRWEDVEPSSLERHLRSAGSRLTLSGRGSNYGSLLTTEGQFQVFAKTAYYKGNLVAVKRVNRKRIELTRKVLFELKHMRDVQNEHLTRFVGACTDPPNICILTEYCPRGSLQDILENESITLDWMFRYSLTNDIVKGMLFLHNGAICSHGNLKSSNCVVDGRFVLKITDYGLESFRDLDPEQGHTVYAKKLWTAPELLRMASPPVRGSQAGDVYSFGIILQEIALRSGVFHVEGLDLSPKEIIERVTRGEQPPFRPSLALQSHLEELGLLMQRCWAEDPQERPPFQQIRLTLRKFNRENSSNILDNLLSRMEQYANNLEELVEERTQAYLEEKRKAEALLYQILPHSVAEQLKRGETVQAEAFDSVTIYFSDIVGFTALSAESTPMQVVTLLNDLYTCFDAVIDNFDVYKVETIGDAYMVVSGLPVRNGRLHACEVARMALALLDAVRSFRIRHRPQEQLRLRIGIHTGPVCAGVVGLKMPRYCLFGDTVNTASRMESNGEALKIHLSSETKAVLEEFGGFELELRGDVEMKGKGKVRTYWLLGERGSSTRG

Take REGN-5381 (antibody): the Ratio (without ANP) of NPR1 antigens remaining on the cell surface after endocytosis to the initial number, 10 min, 20 µg/mL came out at 0.56; the Ratio (without ANP) of NPR1 antigens remaining on the cell surface after endocytosis to the initial number, 1 h, 20 µg/mL was 0.46; the Ratio (without ANP) of NPR1 antigens remaining on the cell surface after endocytosis to the initial number, 7 hrs, 20 µg/mL came out at 0.3; the Ratio (without ANP) of NPR1 antigens remaining on the cell surface after endocytosis to the initial number, 24 hrs, 20 µg/mL stood at 0.39. The Sum of signal changes (cGMP production in cells before and after endocytosis treatment) was determined as 1.08.

The record behind these values is EP4725963A1.
